± gives the standard deviation of the averaged measurements.
Test system: ATP
Assay: switch fluorescence ratio, 500 uM ATP over buffer (Cy3 cluster intensity, sum of 5 cycles each) (fold (ratio)); higher = stronger signal-on switching upon ATP binding; sequences stand for … in TCGTCGGCAGCGTCAGATGTGTATAAGAGACAGTTTTTTTTTTTTTTTTTTTTTTTTT…TC
Conditions: aptamer strand: ATP DNA aptamer (quencher-CACCTGGGGGAGTATTGCGGAGGAAGG + anchor), 100 nM annealed; ATP concentration: 500 uM
Outline: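 Per cluster, summed Cy3 intensity from the target cycles was divided by that from the buffer cycles to give the fluorescence ratio, then averaged per switch-domain sequence. Clusters outside 100-1000 RFU were excluded. The Cy3-labelled switching-strand clusters, on a modified Illumina MiSeq flow-cell, were annealed to 100 nM quencher-labelled ATP aptamer and imaged in selection buffer, then after 15 min with 500 uM ATP at 22 °C, for five cycles with NaOH stripping and re-annealing between them.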
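Further: ATP exposure 15 min at 22 °C before imaging.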

Sequence | switch fluorescence ratio
TAGTGCAAGA | 1.0334 ± 0.00052
TAGTGCCGGG | 1.06 ± 0.07
TAGTGGACGG | 0.986 ± 0.034
TAGTGGCTTA | 0.98 ± 0.042
TAGTGGGCGA | 1.01 ± 0.067
TAGTGGGGCA | 0.966 ± 0.033
TAGTGGGGGA | 0.995 ± 0.015
TAGTGGTCCA | 0.98 ± 0.03
TAGTGTGGGC | 0.999 ± 0.017
TAGTGTTTCT | 1.01 ± 0.018
TAGTGTTTGT | 0.979 ± 0.017
TAGTGTTTTT | 0.9775 ± 0.0093
TAGTTAGGGG | 1.01 ± 0.058
TAGTTATGTG | 0.9513 ± 0.0043
TAGTTCAGGA | 1.05 ± 0.036
TAGTTCGTTT | 0.998 ± 0.016
TAGTTGAGTT | 0.982 ± 0.029
TAGTTGATAA | 0.996 ± 0.018
TAGTTGGAAG | 1.021 ± 0.0048
TAGTTGGATG | 1 ± 0.038
TAGTTGGGCT | 0.961 ± 0.032
TAGTTGGGGA | 1.03 ± 0.033
TAGTTGTTGT | 0.981 ± 0.049

Sequence | switch fluorescence ratio
TAGTTTAATT | 0.998 ± 0.015
TAGTTTCGGG | 0.997 ± 0.05
TAGTTTTCTG | 0.982 ± 0.017
TAGTTTTGTG | 1.01 ± 0.062
TAGTTTTTGT | 1.01 ± 0.049
TATAAAAACT | 1.01 ± 0.021
TATAAAAGGG | 1.03 ± 0.078
TATAAAATCT | 1.02 ± 0.082
TATAAACCGC | 1.22 ± 0.11
TATAAAGAGC | 1.08 ± 0.081
TATAAAGGGA | 1.04 ± 0.029
TATAAAGTGG | 1.03 ± 0.022
TATAAATGGC | 1.01 ± 0.029
TATAAATGTG | 0.978 ± 0.027
TATAAATTGG | 1 ± 0.032
TATAACCTGT | 1.015 ± 0.0089
TATAACTATT | 0.999 ± 0.042
TATAACTTAA | 1.03 ± 0.026
TATAAGAAAA | 0.978 ± 0.013
TATAAGACAA | 1.02 ± 0.022
TATAAGCACG | 1.096 ± 0.0066
TATAAGGCGC | 0.949 ± 0.032
TATAAGGGGA | 1 ± 0.039

Sequence | switch fluorescence ratio
TATAAGGTCC | 0.98 ± 0.019
TATAAGTACA | 1.38 ± 0.04
TATAAGTACG | 1.27 ± 0.016
TATAAGTAGT | 0.956 ± 0.011
TATAAGTTAT | 0.993 ± 0.029
TATAAGTTTG | 0.999 ± 0.015
TATAATAGCT | 1.02 ± 0.023
TATAATATCG | 0.961 ± 0.015
TATAATATTT | 1 ± 0.021
TATAATCGGG | 0.989 ± 0.015
TATAATTGGG | 0.9921 ± 0.0015
TATAATTTTT | 1.03 ± 0.074
TATACAACGA | 1.03 ± 0.021
TATACAATTG | 1.01 ± 0.017
TATACACATT | 1.02 ± 0.035
TATACAGAGG | 0.983 ± 0.032
TATACGAATT | 1.02 ± 0.074
TATACGGAAG | 1.02 ± 0.046
TATAGACTTA | 0.994 ± 0.026
TATAGAGATG | 1.01 ± 0.036
TATAGCATCT | 1.047 ± 0.01
TATAGCCCGT | 1.02 ± 0.016
TATAGCGGGG | 1.02 ± 0.015

Sequence | switch fluorescence ratio
TATAGGCGCT | 0.994 ± 0.035
TATAGGCGGT | 1.12 ± 0.2
TATAGGGGTT | 1.02 ± 0.061
TATAGGTCAG | 0.985 ± 0.011
TATAGGTGCG | 0.9891 ± 0.0049
TATAGGTTT | 1.01 ± 0.02
TATAGTATTG | 0.9861 ± 0.0087
TATAGTGGCC | 0.998 ± 0.022
TATAGTGGCG | 1.02 ± 0.051
TATAGTTCGG | 1.01 ± 0.013
TATATAAAGA | 1.03 ± 0.035
TATATAAGAT | 1 ± 0.058
TATATAATTT | 0.987 ± 0.012
TATATACGGG | 1.05 ± 0.032
TATATAGGGA | 0.981 ± 0.026
TATATATCTC | 0.9917 ± 0.0089
TATATCAGTC | 1.02 ± 0.058
TATATCGGCT | 1.03 ± 0.023
TATATCTAAA | 0.973 ± 0.044
TATATGACTT | 1 ± 0.012
TATATGAGAT | 1.01 ± 0.017
TATATGGAAG | 0.984 ± 0.03
TATATGGGAT | 1.006 ± 0.0035

Sequence | switch fluorescence ratio
TATATGGGTA | 0.982 ± 0.057
TATATGTCGT | 0.99 ± 0.01
TATATGTTTT | 0.968 ± 0.013
TATATTACTG | 1.09 ± 0.12
TATATTCGCT | 0.988 ± 0.012
TATATTTAGC | 1 ± 0.033
TATATTTG | 0.9883 ± 0.0065
TATATTTGTC | 1.04 ± 0.032
TATCAAAAAT | 0.994 ± 0.013
TATCAACCTT | 1.25 ± 0.34
TATCACAGTT | 1.01 ± 0.035
TATCACTTTA | 1.088 ± 0.0043
TATCAGAGGA | 1.04 ± 0.013
TATCAGGTCC | 0.9982 ± 0.0069
TATCAGTTCG | 0.9961 ± 0.006
TATCATCGGT | 1 ± 0.047
TATCATGCCG | 0.967 ± 0.037
TATCATGTCG | 0.986 ± 0.031
TATCCAATCA | 0.9719 ± 0.0081
TATCCATGGA | 1.01 ± 0.026
TATCCCATAC | 1.49 ± 0.073
TATCCCGGTG | 1.82 ± 0.043
TATCCTGTTT | 1.04 ± 0.011

Sequence | switch fluorescence ratio
TATCGACGTT | 0.97 ± 0.038
TATCGCCGAA | 0.997 ± 0.037
TATCGCGTTC | 1.09 ± 0.078
TATCGGCAAT | 4.42 ± 0.76
TATCGGGGGA | 0.985 ± 0.061
TATCGGGGT | 0.989 ± 0.013
TATCGTAGGG | 1 ± 0.022
TATCGTCTAC | 1.015 ± 0.0033
TATCGTGAGT | 0.9822 ± 0.0071
TATCTCTACT | 1.03 ± 0.017
TATCTGTCAA | 1.11 ± 0.032
TATCTGTGCC | 0.96 ± 0.054
TATCTGTTTC | 1.01 ± 0.016
TATCTTTGCG | 0.965 ± 0.01
TATGAAAGGC | 0.991 ± 0.053
TATGAAAGTA | 0.999 ± 0.033
TATGAACCGT | 0.984 ± 0.052
TATGAAGTTG | 0.985 ± 0.015
TATGAATGGG | 1.01 ± 0.021
TATGAGCCTG | 0.968 ± 0.047
TATGAGGTAA | 1.02 ± 0.028
TATGAGGTTG | 1 ± 0.03
TATGAGTAAG | 0.978 ± 0.027

Sequence | switch fluorescence ratio
TATGATCACG | 0.995 ± 0.011
TATGATCAGG | 0.9933 ± 0.0025
TATGATGGGA | 0.9911 ± 0.0093
TATGATTGGG | 1.008 ± 0.0013
TATGCACGGA | 1.07 ± 0.09
TATGCCAGCG | 1.01 ± 0.025
TATGCGAGTC | 0.952 ± 0.036
TATGCGTCGA | 0.979 ± 0.013
TATGCGTTGG | 1.007 ± 0.0024
TATGCTAGC | 1.03 ± 0.091
TATGCTAGGG | 0.977 ± 0.036
TATGCTAGTA | 0.992 ± 0.025
TATGCTGAAT | 1 ± 0.015
TATGGAATGT | 0.998 ± 0.0062
TATGGAGGAG | 0.981 ± 0.017
TATGGAGGGA | 0.996 ± 0.021
TATGGAGTTT | 1.01 ± 0.013
TATGGATTGT | 1.01 ± 0.04
TATGGCCAAT | 1.03 ± 0.03

— the supplement of paper PMC10126150
